Data from the DeepSol protein solubility set.

Experiment: soluble on expression in E. coli; label from the status in PepcDB or PDB records

Question: Which “soluble on expression in E. coli” value does the source give for “MTEDGVMKIDASTSTIKEPEPADCVILPTHTNEQVVYYKSWIAFGDNPNYLTYNRDLGYADWYGIVDCSDSPPTGPGVYKAFIYVNDLNYQESGNPLFKVTGRLKFLANKDTSDTMMKLEIFEQNRLEELRLSPKKMSDSQVIAIILFDNEETNSAICYSEQLESSIKVHLPVGSPAKAGQLILFTEYNYENDTYFPDPRPDAIEYRECEMTRIENGELLISAKAACSSIETHITYPQSVAFADTFGKVNVAAESMERGVTYRVELAINIIDSEANNVPLFKISDIGEKLTGEENEAFLRKLNDFEELQGTWEDWTPEEIAVELEPVAAAEEPADPEVEEAKIEENGVNDESLTQSESDSVFLPQIESSASSEETMSESNSAENSEKPKKTFGRMPQSLSESSSSTISSSKVGVDHSVIVLNVDNDECVGFETTQLKLMTICTAGVTVPLRPYGIFQFIAAGNNYGKTSIQTQSARVSECEGAVFSSDDVPKISANVIFSSNPKHKSYNKEVGVSDRYGFVEIPRITGDFEFGTVYSTQITMVQYGDPLKACFKAVAPLKRQFIDDLDHYLQVMGKYEDNIYQLSRKNGLGAKSISRLPNEPRNGSKHGSTKRFTTPHVTGLVVDMEKRGNYFGCVWTCFGDVVFKSTPTFSQNGGYPSVGDLVNIRVEILSPGTKDQKNLGASMTEKPASLSTTVIWRNNGFIVKAYLIMKPEKLIYSEDNNRFYEHDQLGIVVADSSIYGSDNEQSKVFEFERLRNPITLGFTTNLMNKCYWAARLPMIHREPSPPEPINKYNDENVYDDFQKGGPQSVNSYRSDRQYQEKPPMQYQSYHDPADTISIHSQDNHRPMETRSNAGTSVSSVDRKEVGVVMKKVDKNTQIVYLSGQKAAAIHHWNTHSQSTIVGNSYIFMYRPIEVHKATHYAPFEITQVVEILNTENHGRVDRSEFSSLFTFDLCNVDQRYVERLAFGEALVLRSNDVGHVVMASNVKTPLNPSMTAVEVCQTYKGKRESENLVGYCRLVYGKVPREIVDGHFSDQFVSAYYFELHEILATSNAYIVRNENLDRRNLRGNTIEEVRDDISIQKRIAHMNFGQNEQQQQQSSLSSRGPTRPYSPVGSYQSSHQNFDNRSAAHNGDGRSTSQSHHSAGGSMNHQNFYQPPVYQSSSSQQSYQPRYNGAPSGPLPPPSSQSSFNGAPAPPHYSEMSNDYNRMVRKLAELTDTAAQMIINNDIRQQIKNISPDLLDDLERNIDACQREKRHYYEKYGN” here?
Answer: Its value is “not soluble”.

Question: Which “soluble on expression in E. coli” value does the source give for “MGSDKIHHHHHHMLSYYGRLSSEVYDIDKPIDHSFRDVEFYIDRLNLCRGHILEPATGTGRVLVPLLEKGFKVDGFDSSKDMLNICRDNCRKKGLNPKLFEAKMESFIQDTRYDAIIVPAGTFLLLHQRADSIRALQNFHKHLCTGGRLIIDILMQTDFSTGTVSTRTWVCSNGDLITLESKVVEVDYINQYTVSHNRYEKWREGVLIQTELERFPLRWYGLEEFKLILESTGFKDIVISSDYKFGQYPSNVKDVITFEAVAIN” here?
Answer: The value was “not soluble”.

Question: Which “soluble on expression in E. coli” value does the source give for “QDSLPDTKASGPAHSKEVPALTAVETGATNPLAPSDTVQTRHVVQRRSRSESTIESFFARGACVAIIEVDNEQPTTRAQKLFAMWRITYKDTVQLRRKLEFFTYSRFDMEFTFVVTANFTNANNGHALNQVYQIMYIPPGAPTPKSWDDYTWQTSSNPSIFYTYGAAPARISVPYVGLANAYSHFYDGFAKVPLKTDANDQIGDSLYSAMTVDDFGVLAVRVVNDHNPTKVTSKVRIYMKPKHVRVWCPRPPRAVPYYGPGVDYRNNLDPLSEKGLTTY” here?
Answer: The value was “soluble”.

Question: With “MGSDKIHHHHHHMDNPFARFAGTRTIQANLSLLEENYVPDSFPHRENQINEMVTILSSIMRGSRPSNIIVYGKTGTGKTSTTKYVTKMLVEAASNVSVVYVNCEIYDSPYSILVAIANSAGEEKIPELGWPIDRIYRETVERVEKTGKFFIIILDEMDRLIKKNGGDSLYVLLKLMTDVDSVRVSMIGITNDTTVLENIDARIKSRLNQESIVFPPYNASEIRDIISSRLDKVLGPGVVDDTAINLCAAIGAQEHGDARKAIDLMRIAIEIAIRENRNKITENEIYEARERYEMNVLREAISTLPLHSKIVLLSAVVTQEIEPNSVITGEIYENYRRICDDLGFSPLSPRRISDLLTELADYGLLVMDDRNMGKYGRTRSFSVVHQAETIKKYLLEDENLSMFKSSKMPKQTRFDT” as the sequence, how does the “soluble on expression in E. coli” value read?
Answer: The value was “not soluble”.

Question: Which “soluble on expression in E. coli” value does the source give for “MTTNKDHFMAKIQLVAQANLPTEYGIFKMVGFEFPDTKKEHVALVMGDISNADEPVLARIHSECLTGDALHSLKCDCGFQLATALKQIQEEGRGVLIYHREEGRGIGLINKIRAYSLQDKGMDTIEANLALGFKADERNFEVCADMFELLGVKKVRLMTNNPEKVETMKKAGINVVERVPLNVGENRYNTKYLDTKAKKMGHYIVHNNDEQHLMTCPHCQEEIILEHHHHHH” here?
Answer: Its value is “soluble”.

Question: Which “soluble on expression in E. coli” value does the source give for “KDCASDGTLSAVGSLETPEKKQSESSRGRKRKAENQNESSQGKSIGGRGHKISDYFEYQGGNGSSPVRGIPPAIRSPQNSHSHSTPSSSVRPNSPSPTALAFGDHPIVQPKQLSFKIIQTDLTMLKLAALESNKIQDLEKKEGRIDDLLRANCDLRRQIDEQQKLLEKYKERLNKCISMSKKLLIEKSTQEKLSSREKSMQDRLRLGHFTTVRHGASFTEQWTDGFAFQNLVKQQEWVNQQREDIERQRKLLAKRKPPTANNSQAPSTNSEPKQRKNKAVNGAENDPFVRPNLPQLLTLAEYHEQEEIFKLRLGHLKKEEAEIQAELERLERVRNLHIRELKRINNEDNSQFKDHPTLNERYLLLHLLGRGGFSEVYKAFDLYEQRYAAVKIHQLNKSWRDEKKENYHKHACREYRIHKELDHPRIVKLYDYFSLDTDTFCTVLEYCEGNDLDFYLKQHKLMSEKEARSIVMQIVNALRYLNEIKPPIIHYDLKPGNILLVDGTACGEIKITDFGLSKIMDDDSYGVDGMDLTSQGAGTYWYLPPECFVVGKEPPKISNKVDVWSVGVIFFQCLYGRKPFGHNQSQQDILQENTILKATEVQFPVKPVVSSEAKAFIRRCLAYRKEDRFDVHQLANDPYLLPHMRRSNSSGNLHMAGLTASPTPPSSSIITY” here?
Answer: Its value is “soluble”.

Question: With “MVEVPSFRSNEHFPQLCDKVTVKWDKKRGRFVEAIEDIPIGTVVCVETGITVNVDPQNCYRCLKITENASFAYCKNCEEFYEPDEIACGEFDELGIFKLAAHLVFSYPFADIASLVQSSDPEPPSCAPKALSTQDIEAIFQLTPFPEIGEAFKAPAIQNAIKRIVESLETDENWGRLDQISRTMTFTKALRIMAERSAKNAHTIYSIEQIESQEDNLPMATGLFPISSIFNHSCTPNISGFFVRNTFIFVSQGVRAREELLDSYGVTYHQHTFEQRTNFLASVSGFICHCESCFKMKSLKVLEKPKKYPETIATNASCFTDITSYTENIPRGSKELENLIIAFARRPDSETYTELIFQFWKKFVENAKFRGITYDPYLVRPYVEMTILAWNKEVGCENEEKMSLLIVTHRLLRNCYVDLHPLSELVVKLVNVVANQNADEINRTLEKLKLRARMLWKYSEQSEDL” as the sequence, how does the “soluble on expression in E. coli” value read?
Answer: The value was “not soluble”.

Question: Which “soluble on expression in E. coli” value does the source give for “DLHEILHEAVPLDANEREILELKEDAFAQRRREIETRLRAANGKLADAIAKNPAWSPEVEAATQEVERAAGDLQRATLVHVFEMRAGLKPEHRPAYDRVLIDALRRGSQ” here?
Answer: The value was “soluble”.

Question: Which “soluble on expression in E. coli” value does the source give for “SNEGKELSTFCRKFEVPLRKALEKAGRLVDDPGRPRLLLTFISGRRVFVGVASASNSALWPMGIPRLKFPREAPSRSTLKLEEAWHQFIPREQWEQRLGDDMTGVDLGASPGGWTYQLVRRGMLVTAIDNGPMAESLMDTGLVQHLMADGFTWQPKQPVDWMVCDIVEKPARTTSLIETWLGEGLCREAVVNLKLPMKQRYAEVRRLLDRMEATFKARKIRVSIACKQLYHDREEVTCHLRRLDLK” here?
Answer: Its value is “not soluble”.

Question: With “MGSDKIHHHHHHMREISMDWNDLRFFLEVARTSSLTKTAIKLKVSQSTVSRRIGALESSLKTRLFLHHQTGYFLTDVGKEVLKYAEDVEGKVGTLEKKISGRDLAPAGIVRLATAVTLANHLIIPQLPRFMACYPEIILELVTGVNTVSVVRNDADIALRLVRPEQNSLKIRKVGVVASAVYGSETYVREHPAPEDNPIIGRSFITWDKSFSHLPSARWLNEHFPDMTSTLALTSLVTQIAAANAGLGLAVLPCFIAAQNSDLVEVIHTQRVFSEDLWLVSHTDLIASSRIRVVADFLMEIIAEAHLA” as the sequence, how does the “soluble on expression in E. coli” value read?
Answer: Its value is “not soluble”.

Question: For “PEFMVTTEPALADLQEQLYNGNEKSQLAAMSTLSTAGTEGYHLLQEFLKDSATFSPPPAPWIRGQAYRLLFHSPEASVQAFLQQHYPQGVIPLRSDRGVDYQELAKLFVAEKFEAADRLTTQKLCELAGPLAQKRRWLYFTEVEQLPIPDLQTIDQLWLAFSLGRFGYSVQRQLWLGCGQNWDRLWEKIGWRQGKRWPRYPNEFIWDLSAPRGHLPLTNQLRGVQVLNALLNHPAWTA”, which “soluble on expression in E. coli” value is on record?
Answer: Its value is “soluble”.

Question: For “MGSDKIHHHHHHMPNQVSKVNDLKHFFLHLIESGKLSHAYLFLGEDPREIHNLIAAISSRILREKTGDDVFENANLIEVKIPEGKKTLSVDQMRTVRDIFAEKSEHPQIAVIDDADKMTDSAANSILKFIEEPYDRQYIFLQARNRNRVLPTILSRVQLINIPKQKKSEISEQLVDKGIQEDEAIFISRISKSISQADDLLLDGFAINLKRSITEWLDEIFNRQEKSFAFVQSDLLNFVDTNEHQNIFNLALSSELSMRLEKAPNSVLADILDRWLVIYQRSRFTVSWQTMLESFTLEALRMVNGTEKFSNK”, which “soluble on expression in E. coli” value is on record?
Answer: The value was “not soluble”.

Question: With “MELKKRSEFPENELWDLTALYKDRQDFLLAIEKALQDIDLFKRNYEGRLTSVDDFTQALIEIEHIYIQMSHIGTYAFMPQTTDFSDESFAQIAQAGDDFMTKASVALSFFDTALANADLDVLDTLEKNPYFSAAIRMAKIQKEHLLSPDVEKALANLREVINAPYDIYTKMRAGDFDMDDFEVDGKTYKNSFVSYENFYQNHENAEIREKAFRSFSKGLRKHQNTAAAAYLAKVKSEKLLADMKGYASVFDYLLAEQEVDRSLFDRQIDLIMTEFGPVAQKFLKHVAQVNGLEKMTFADWKLDIDNDLNPEVSIDGAYDLVMKSLAPLGQEYTKEIERYQTERWVDFAANANKDSGGYAADPYKVHPYVLMSWTGRMSDVYTLIHEIGHSGQFIFSDNHQSYFNTHMSTYYVEAPSTFNELMLSDYLEHQFDDPRQKRFALAHRLTDTYFHNFITHLLEAAFQRKVYTLIEEGGTFGADQLNAMMKEVLTDFWGDAVDIDDDAALTWMRQAHYYMGLYSYTYSAGLVISTAGYLNLKHNPNGAKEWLDFLKSGGSRTPLDTAMLIGADIATEKPLRDTIQFLSDTVDQIISYTEDMSHA” as the sequence, how does the “soluble on expression in E. coli” value read?
Answer: Its value is “soluble”.

Question: For “MIKILAACGAGVNSSHQIKSALEEELSNRGYDVHCDAVMVKDVNEDLMKGYDIFTPIAATDLGFEPGIPVIEAGPILFRIPAMSVPVFDNIRLPAKQNMV”, which “soluble on expression in E. coli” value is on record?
Answer: The value was “not soluble”.

Question: Which “soluble on expression in E. coli” value does the source give for “MSLSIALIAPYESLATLCRSICQELDLDVSVHTGSMEDGVRIARNLMAEGVDFFISRGLTAQLIREQCPLPVAELEVSAFDIYLCLEPLLRSGKSIGVVGHSDILRKAKGASAALGFTIDFYATAHPGGMGHIMEAARRQGIAAIAGDAVAARTAERYGMEGVLVQNGADSVTNTLQYAVATYSYLTRQATMAGRLQTVLDRMDGGALLASPDGRMLHCNAAVRAMLEPDQGCTETSMDDLFPQLDWRAVPEGRAETVRELVTVGGSKLAVTVTGTMHDDAMDALICTFHDVRQIEQLEHSFRKSEGHHHHHH” here?
Answer: The value was “soluble”.

Question: With “FWGVWASEPPHPVLHASHDAAGWRLRGTKAWCSGASMCTHALVTARVDEQPRLFAVDLREPGVTAGRGGWRNPGMAATDTESVTFDGVPARPVGAPDE” as the sequence, how does the “soluble on expression in E. coli” value read?
Answer: The value was “not soluble”.

Question: With “MHSYHNPGVPTALSIFEPLQDGSTISVHGHVRHGHHKNFAVELLSGPNVVLHVNFRFHHEHVVVMNSQFSGMWGPEIRHKNPLHHSEHFHLSIKVHAGYYHISVNGHHLADYPHRYPYQSVQAIGLKGDVHVDKVHFEGFHFQRRWDGHVDHGHSGYNAYGTETYVAPVFVQPNFMPYGAPPPPVQNFNPYR” as the sequence, how does the “soluble on expression in E. coli” value read?
Answer: The value was “not soluble”.
